US20120010388A1 (published 2012)
Blank lines part the entries; values can stand above or below the binder they belong to.

What was measured:
HER2 [1] = molecular target: T1, HER2 (UniProt P04626 23-1255, limits assumed); experiment: flow cytometry on SKBR3 cells (HER2 and Lewis Y on the cells), PE anti-human Fc detection, half maximal staining intensity
T1 construct: whole, on cells; The target cells are SKBR3; also called ErbB-2; CD340
Procedure: SKBR3 cells are cultured in RPMI1640 containing 10% fetal calf serum an 8 mM glutamine. The cells are harvested by trypsination. A total of 1×10⁵ cells in PBS containing 0.1% BSA are incubated with dilutions of the bispecific molecules or control proteins (anti-Lewis Y antibody IGN311 and anti-HER Fcabs respectively) in the range of 1 mM to 0.1 nM and incubated on ice for 20 min. After removal of excess of bispecific molecules or control proteins cells are incubated for 10 min on ice with phycoerythrin-R-coupled polyclonal anti-human FC antibody (Sigma). Measurements are performed on a FACS analyzer (FACS Calibur).
The half maximal staining intensity (EC50) is reached for molecule no. 1 at around 1 nM and for molecule no. 2 at around 10 nM.

HER2 [2] = molecular target: T1, HER2; experiment: cell-based or functional assay

EC50 (HER2 [1]): ~1 nM
B1: molecule no. 1 (IGN311/Fcab 10-03-6) (bispecific antibody, human IgG1, kappa)
heavy: EVQLLESGGGLVQPGGSLRLSCAASGFTFSDYYMYWVRQAPEKRLEWVAYISNGGGSSHYVDSVKGRFTISRDNAKNTLYLQMNSLRAEDTALYHCARGMDYGAWFAYWGQGTLVTVSSASTKGPSVFPLAPSSKSTSGGTAALGCLVKDYFPEPVTVSWNSGALTSGVHTFPAVLQSSGLYSLSSVVTVPSSSLGTQTYICNVNHKPSNTKVDKKVEPKSCDKTHTCPPCPAPELLGGPSVFLFPPKPKDTLMISRTPEVTCVVVDVSHEDPEVKFNWYVDGVEVHNAKTKPREEQYNSTYRVVSVLTVLHQDWLNGKEYKCKVSNKALPAPIEKTISKAKGQPREPQVYTLPPSRDEYLHGDVSLTCLVKGFYPSDIAVEWESNGQPENNYKTTPPVLDSDGSFFLYSKLTVARYSPRMLRWAHGNVFSCSVMHEALHNHYTQKSLSLSPGK
light: DIVMTQSPLSLPVTPGEPASISCRSSQSIVHSNGNTYLEWYLQKPGQSPQLLISKVSNRFSGVPDRFSGSGSGTDFTLKISRVEAEDVGVYYCFQGSHVPFTFGQGTKLEIKRTVAAPSVFIFPPSDEQLKSGTASVVCLLNNFYPREAKVQWKVDNALQSGNSQESVTEQDSKDSTYSLSSTLTLSKADYEKHKVYACEVTHQGLSSPVTKSFNRGEC
notes: IgG: humanized anti-Lewis Y antibody IGN311 whose CH3 domain is replaced by the CH3 of the anti-HER2 Fcab 10-03-6
half maximal (50%) immediate cytotoxicity (EC50), 51Cr release from SKBR3 cells (HER2 [2]): ~1 nM

EC50 (HER2 [1]): ~10 nM
B2: molecule no. 2 (IGN311/Fcab H561G3M1G4) (bispecific antibody, human IgG1, kappa)
heavy: EVQLLESGGGLVQPGGSLRLSCAASGFTFSDYYMYWVRQAPEKRLEWVAYISNGGGSSHYVDSVKGRFTISRDNAKNTLYLQMNSLRAEDTALYHCARGMDYGAWFAYWGQGTLVTVSSASTKGPSVFPLAPSSKSTSGGTAALGCLVKDYFPEPVTVSWNSGALTSGVHTFPAVLQSSGLYSLSSVVTVPSSSLGTQTYICNVNHKPSNTKVDKKVEPKSCDKTHTCPPCPAPELLGGPSVFLFPPKPKDTLMISRTPEVTCVVVDVSHEDPEVKFNWYVDGVEVHNAKTKPREEQYNSTYRVVSVLTVLHQDWLNGKEYKCKVSNKALPAPIEKTISKAKGQPREPQVYTLPPSRDEFFTYWVSLTCLVKGFYPSDIAVEWESNGQPENNYKTTPPVLDSDGSFFLYSKLTVDRRRWTAGNVFSCSVMHEALHNHYTQKSLSLSPGK
light: B1 light
notes: IgG: humanized anti-Lewis Y antibody IGN311 whose CH3 domain is replaced by the CH3 of the anti-HER2 Fcab H561G3M1G4
half maximal (50%) immediate cytotoxicity (EC50), 51Cr release from SKBR3 cells (HER2 [2]): ~10 nM
